experiment: soluble fraction after stress (log2 fold change); higher = more stays soluble; pooled small domains, quantitative proteomics; details: stress: pH 4
Procedure, shortened: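 Custom libraries of small protein domains were pooled and measured with high-throughput quantitative proteomics after pH 4 stress. The read-out is the fold change in the amount of each domain that stays soluble after the acid stress, taken as a measure of aggregation propensity. Fold changes are on a log2 scale, and higher values mean more of the domain stayed soluble.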

Sequence | soluble fraction (log2)
HMPDFLAELAARMERDAVTEAQIRQVVAQKGHYPEEVSPAQYHPDFFRQWLFPHWEKIVDVIRSSPEYTP | -0.539
HMETKPTELMLDVHKLRIGMFVYLDLGWMDHPFPLNRFKISTNAQIEQIKGLRLKQVKVMTALSDPASLL | -0.637
HMDGQGIRSITPEYYLSDSATKMPDASSSGWKSVPDDYIDKHYYWVRSKILWDDGTYTTTTPVL | -0.291
HMDRDQNVEEGQRSLKSEMGRFGLLIANMDDLAERVNYGNAEDMYAAIGAGDLRLMQVVHAAEEMLG | -0.61
HMSDDVELLGRLSDREVSVLQYLSQGYSNKQISEQMFISNKTVSTYKARLLLKLNAGSLVDLIEFAKRNTL | -0.961
HMKRISDEDLLVMRRIDEVHTYHPTWGYRTITRILRRDDHLLINPKKVRRIMRDMGIYTIYPK | -0.41
HMNLGDLYVIMEIAGQRDDVSARLMNREGQTFLVKTGTKLKSGDVVKEITPTYIKTDHDGEEAFLYF | -1.17
HMAVRNTKQKQLVLSLLKNSGRPMTAGEIYRLAVQQYPNIAKSTVYRNLENLVSRGEVSQGMHQNGESFYS | ≥ 0.43
HMLAMHVVESVGGAEQFTKLQNFAKTQNADYQKMWNDTMNSGNVLAIKTMLSGIQSDMIAVQ | -0.466
HMSKKTQKDEVVDLFLKTGNEPLHYKEISKKTGIIVHNVRRITGQNVVGKTDNPVFKRVSPGVYKLID | -0.0395
HMIHSEEIQDHIFVKQLGEVFLRNHINYENIMKSWDDHTNVIKRFRRYPHRNKILNRESTIDEISFLKE | -0.0283
HMGVYDLIYLGYGINVEKEELVDQNISIIRRYANIFDPNGDIKGSTNPTYASNTAVLFNEAKFIIDGYD | -1.79
HMENMSFGTKLYTWLYGKLVGSDEIGNKYYTNINDPSDLNAKRWVIFNGEIEASKIPPHWHAWLHKSIDK | -0.265
HMDQPLIEPLSERELEVLSLIAAGYSNAEIAERLVIAVGTVKRHINNLYGKLGAGSRTQALAIAREIGLM | -0.661
HMGEPLSPDARALTNVLRHYRGWAEPGELARKSGLGSRERVLTAAQSLVNAGLADIERGMVRPTAALMEVQ | -0.0354
HMQRAEQLPAELAAVFRAETEAWGFFERQPPGYQRVAIHWVASAKQEATRLRRLAKLIEESAAGRR | -1.43
HMNKFRVGDEVEIVKLDKTIQHFGGEEVLSPVGTKTYITYVDVTGKEIEIDKDIYSYHADDLTLV | -1.76
HMSNGEWQQGSDGRWWYKFSDGTYPKNKVETIGGKKYGFDSEGWMLANTTKEFSGTTYSFGADGVATS | -0.0709
HMVTDVDELEKLIQKVLDSNSSQVDEYRQGKEKVFGFFVGAVMKLTKGQADPDVVNQLLKEKLSGRK | -0.0516
HMVINTRHTGFVVDDLERFINFYLGLGLKLISRKVESGEYIDKLVGLKGTKLEWAKLSLPDNSMIEILKYH | -0.454
HMARLAGVDLPREKRIEIGLTYIYGIGLARSQEILKKAGINPDIRVKDLTDEQEQAIRNAMDGYIVEGDL | -0.0746
HMEITTEDIAAQVASWIVRLSEDLTSTDRAALQIEFEQWQQTDSRRAEIAHKMLSLIGQAEQLRKT | -0.614
HMQASISVDEAKSIALNYAKFTADQVVYTKSELDYDDGRAEYEIEFYAGGKEYSFTIDAVSGTVLEMEI | 0.107
HMESENANVNRAMLTGIASMHAGQLETALNKFNEVIQLAPDFAEGWNKRATIFYLMKKFDRSVNDIAQTLK | -0.741
HMLSTGIIIGDNVALRKTASSNGGIITRLDEGTVVKILASNVNAEWYQVEAGTKTGYVNRLYVNID | -0.345

Sequence | soluble fraction (log2)
HMGNIKVPSVMGMTLEGAEKVAKDNGAVIEVLEYKESTEEDGTIIEQSPKADMTVATLEKISVVISGK | 0.0995
HMVIDFYDPQTKVIHEIKKSSAKEEAHVWQVKYYIYLFEKEEIMGVKGVLEYPLLREIVSVNF | -0.0844
HMQSISLEEAKSAALDDAQLGIDEVEFLKTERNTDGDTSYYDIQFLVNGTIYKYQINTETGAILHVDYEA | -0.511
HMTKEEFLYELKKELSALDSAEATAYNLRYYSDYIDAEIAKGRSEQEVLDELGNPRWLVNSIKESG | -0.521
HMKVQEVDYGTFLTMVDEGKVNQVDIENSKQITFNTKGDKNKVYITGQVNDPELVNRLYKAGVEFSQEIP | -0.674
HMSSWMTKDGKIKPISKWAGVPMTSQQQADYAAGKVVELTNIPDKQGQLNTVYLKFNPEKQRPTTSLNDPR | 0.22
HMVWINIRDLSDLFSKSGKSENSKNILDLQTLKIEKLLGGGQINTPYTIKVKQATPSAIEKVKQAGGEVIL | -0.00604
HMVSVPDIGEKLPDFTGTPKRLLTPLLNKNDVNIIIKGDGWVVSQKPPAGTPVTKGMTIEFTL | -0.0317
HMANLAQITKTNAVALALKDVGAYNSEDLMKFIDLDKVVLGEDGKPQLEDTINSLKESSPYLFQ | -0.843
HMKEIDVPNVVGASENAARKLLESYGFQVEVQWENGERVDNAVVKSYSPNGSAKSGSTVTIVLGT | -0.293
HMEILVSTRRHEIASLLSRKKRVSFFELFPEKTKEYVVATFLAILEMAKAREVNITQEDTFDEIIVEEA | -1.09
HMEEPEFEPYVVRLTAIALNVRTGPGTQYPVAMVIRGGGAFTIVAEENGFGLLKSGAGWIMLQHTERV | -0.427
HMDINIETLNYYVGKAKIPLSELRISVKNIDLFLSGEKQPTFNQLSSIAKKLNIPTGLLLLDESIEV | -1.34
HMVVYFGGPVMLERGIVLHTPDISTKGTINVSDDFALTAHKEILDNINKDTSSLQFKLAIGH | -0.337
HMNQKVRQLLSQAQAEMERKNYKQAIKLLDQALAIEPHSGELHFMKGYAWMSMGEFEKALESLYEARNYA | -0.754
HMQGQADFTQGIANFTQYPVGSRITVFTLEGRRVAVVEIGKDGTAQLDMRNKPAGVYIVNTGKQSFKWLK | -0.0678
HMIHANGLTDRQEMILEFIRSYISENNYPPSVREIGKGVGLASSASVHNNMKKLASLGFLNWDTD | -0.194
HMRGLGDLEPVDSLGKIRIDDGHMVLAFGRHKGRHLSEVQAEDPRYIHWLLSPKGIEDVEAREKVKVYLEG | -0.136
HMGAVDIATARQLISEIGLPIMLKAEGGGGGRGIFAIHNEAELEDAFFKASTMAQASFGNPRLFVEKF | -0.985
HMYFDDEELDTYKGRASNAYSPDETAQFEEVMTTMRPDEVAAWLRSLQLRGINLPDELKDEAIMLVE | -1.22
HMGDTLEIVVIYSNKQKAEEAVNNLKGKFEDLGYNFAIITVDTSKITQLAMESSIQYIEFPKSFYFSD | -1.29
HMKTFQSYQTTSMSNVNLRKRANGTSTILKRIKVGDTVTVVGKSGNYYQIQFDGKEGYALIKYIDGTDSGA | -0.107
HMDELIKQVANYIINNRATINETAGAFGKSVSSIKKYINDADKLQRIDFELYQKVKEVQKIVELNGQI | -0.269
HMKFYKMIDESDEKIENPEIMIFQIIELVSSTTYSAIINKEPVDVETLKPYLYQTIRTIIINHQS | -0.582
HMIEGSSDWKPNMILDDGGDLTKIIHEEYQDLLDDIRGLSEETTTGVLRLYEMEKENSLAVPAINVND | -0.578

Sequence | soluble fraction (log2)
HMAQFNELLFELRQDRKMTQEDLAKVLFVTSGTISNYENGVHLPDIEKLISLADFFGVTTDYLLG | -0.726
HMRHYVLKENNGVIAIYKVNQENEAVFKENTQIQVQYLPEVDLINLKKGIYAIGEEKLNSILEDF | -0.892
HMDPVILDINSVKALLGISNKADFMAELSRLVVTEGDKKMIIPLAKEVGIDNVAVYKRNEIENISNYK | -0.297
HMAGWIPVEERLPDDLTNPITRDAYVYPVTVDLGDVTDIRYYSFWRGHWYNQGPETMDDLVIAWMLLPEPY | -0.178
HMALGRTGEVYLPIPAGRAGHGKISITLQGALREVDAVTAGEALPRGTSVRVVDVAGNGVLLVEK | 0.32
HMSLLTPLEEARIVIEELIIPQKLTLDLLPQNSQIRKLQHEIINHYRLKGISIGDGKNRRVRIYS | -1.48
HMNAMKPVLTVSLGVHTDSLSRRLNEEGIIYRWQQAASEQLLLVDSESSSERIAELIHDWRLEQSSS | -0.051
HMTKIDYSINQIYSLRNIENITIVLKDKRSFTGKILKIYWQNGSKIILFTTETRNYKFKEYEISEIYKS | -0.706
HMARRLELEDIPVDEVLFTASRNLVDAIEVMDPSRQAPMIQPWLKQALEWAVGALGFSKEDAVATLTSD | -0.264
HMHNSPSPVATTILRFLQPVRAFVGDTEDMRTFGPFLREDVAMVPASQAKNLIRSGHAVEINP | -0.173
HMAPLQDENGDLTFSYNGKTYTVNVNSEEDRNSFAEDFNKENGKKFSWFKERAGLQHYVFYDTEM | -0.918
HMNPMRYLVVPSQETETWKEYLVSKEWLERKYRIETEGDNRAIPLSNLFPKIVPIELSNLEIIEKEAFS | -1.09
HMPELTASDEADLKALVGGDQGFEQMANWARSNLGEEEINRFDAVVDSNNKDAIHMAIQAMQARMNA | -0.394
HMSEVPVLVAKTDIKELELIDDRKVTLINVPQKFKMPGSFNSPEEVYNTIAAVPIKEGEQITKPRVTWP | -0.443
HMFAADIGVGIVDADSLRVRSEPSTGAPIVTSLLRGTQVTVQEKLDGWYRITYNDVSGFVSAEYLIFTADE | -0.297
HMARGRETILLVEDEPAVRGLVHATLRLHGYTVLEARHGIEALLTSTKFVGPIHLLLTDVVMPQMS | 0.265
HMIIIMKKSATNSEVRKVIERAEKEGLTVQVNQLEKQQVLGLVGDTRLIQDVAFLRYEGVENVERI | 0.206
HMKPDWLSDGRLIPDEVMSHLRKIAVHAVEEMGYSPEDVIKILGLSRNTIYDWLKRFREHGYEGLDTKK | -0.738
HMQNWFADPKFEMFEDYGDAQSFYDTETKNIYVVMAEYGQKGSNTIQEITPDSEEYIPNYEKYKEYMENK | -1.42
HMGPSEVTLDNFVGKNYTDVVNDTSYQFTFKKEEKSDQTHAAGIIIAQSPKKGIKVKSNSTVTLTVSTG | 0.216
HMDEWFPVNDDYKFMVGDEVRTPDGLVKVVATHNDSATFYGKIITPIHDDVLKGETYEYRSYEAQVLA | -1.26
HMNLEIGAIIKSLRAKHKYTQEQLSAFLGVTPQAVSRWEAGNGYPDIELLPAIARFFEVSTDELLGL | -1.32
HMKNTADRVYENLFHMLVSGDYAPGDRIPSEHELKERFNVSRNTIRAALNRMNALGIIETRQGDGTYLKG | -0.147
HMRFEWFDTLTDREKEIFGLIATGFDNQQIADRLQLAEQTVRNNISTIYSKLEVKDRFEIIRLANTI | -1.29
HMDVDKQLDQLLAAMIPDKSLRQTIKTKAFNELVDNELADKDISSWTKQTMDVFMTRAEDMFGAM | -1.43

— the domain aggregation screens of Martell et al. (2025)
